B1: EMD (parent)
chain: YQSKGYNDDYYEESYFTTRTYGEP
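Note: lentivirally expressed fusions sorted by FACS into six bins by GFP to DsRed ratio, PSI derived from sequencing read proportions per bin multiplied by bin number.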

In this data set the parent is B1. Description: protein stability index of a GFP-peptide fusion (GPS, HEK-293T) (PSI 1-6); higher = more stable. Particulars: c terminus: a fixed tail appended.
In the case of YQSKGGNDDYYEESYFTTRTYGEP, the protein stability index amounted to 3.01.

On to YQSKGMNDDYYEESYFTTRTYGEP, for which the protein stability index was 2.85.

As for YQSKGTNDDYYEESYFTTRTYGEP, the protein stability index was 3.34.

Regarding YQSKGPNDDYYEESYFTTRTYGEP, the protein stability index is 3.3.

Regarding YQSKGLNDDYYEESYFTTRTYGEP, the protein stability index turned out to be 2.24.

For YQSKGNNDDYYEESYFTTRTYGEP, the protein stability index was 3.16.

On to YQSKGHNDDYYEESYFTTRTYGEP, for which the protein stability index is 2.82.

Take YQSKGFNDDYYEESYFTTRTYGEP: the protein stability index amounted to 2.4.

For YQSKGDNDDYYEESYFTTRTYGEP, the protein stability index came to 3.68.

Consider YQSKGRNDDYYEESYFTTRTYGEP, for which the protein stability index stood at 2.56.

For YQSKGINDDYYEESYFTTRTYGEP, the protein stability index was determined as 2.83.

Take YQSKGWNDDYYEESYFTTRTYGEP: the protein stability index is 1.48.

On to YQSKGSNDDYYEESYFTTRTYGEP, for which the protein stability index was determined as 3.77.

As to YQSKGANDDYYEESYFTTRTYGEP, the protein stability index came to 3.26.

YQSKGKNDDYYEESYFTTRTYGEP: the protein stability index turned out to be 3.05.

Consider YQSKGQNDDYYEESYFTTRTYGEP, for which the protein stability index is 2.93.

As for YQSKGVNDDYYEESYFTTRTYGEP, the protein stability index was determined as 3.31.

In the case of YQSKGCNDDYYEESYFTTRTYGEP, the protein stability index is 2.65.

As for YQSKGENDDYYEESYFTTRTYGEP, the protein stability index is 3.76.

On to YSSKGYNDDYYEESYFTTRTYGEP, for which the protein stability index worked out at 2.65.

In the case of YRSKGYNDDYYEESYFTTRTYGEP, the protein stability index is 2.54.

In the case of YLSKGYNDDYYEESYFTTRTYGEP, the protein stability index is 2.5.

On to YYSKGYNDDYYEESYFTTRTYGEP, for which the protein stability index worked out at 2.01.

Regarding YKSKGYNDDYYEESYFTTRTYGEP, the protein stability index was 3.13.

Turning to YMSKGYNDDYYEESYFTTRTYGEP, the protein stability index was found to be 2.36.

In the case of YPSKGYNDDYYEESYFTTRTYGEP, the protein stability index came out at 2.29.

For the variant YNSKGYNDDYYEESYFTTRTYGEP, the protein stability index was found to be 3.11.

YISKGYNDDYYEESYFTTRTYGEP: the protein stability index is 1.93.

Turning to YVSKGYNDDYYEESYFTTRTYGEP, the protein stability index was 1.9.

With YTSKGYNDDYYEESYFTTRTYGEP, the protein stability index amounted to 1.99.

Take YWSKGYNDDYYEESYFTTRTYGEP: the protein stability index was found to be 1.59.

Take YQSKNYNDDYYEESYFTTRTYGEP: the protein stability index stood at 2.33.

For YQSKEYNDDYYEESYFTTRTYGEP, the protein stability index turned out to be 3.1.

YQSKPYNDDYYEESYFTTRTYGEP: the protein stability index was 2.1.

Turning to YQSKAYNDDYYEESYFTTRTYGEP, the protein stability index turned out to be 1.93.

Turning to YQSKSYNDDYYEESYFTTRTYGEP, the protein stability index turned out to be 2.9.

In the case of YQSKCYNDDYYEESYFTTRTYGEP, the protein stability index turned out to be 1.95.

Regarding YQSKYYNDDYYEESYFTTRTYGEP, the protein stability index is 1.89.

For the variant YQSKMYNDDYYEESYFTTRTYGEP, the protein stability index stood at 1.74.

For the variant YQSKHYNDDYYEESYFTTRTYGEP, the protein stability index was determined as 1.89.

For the variant YQSKTYNDDYYEESYFTTRTYGEP, the protein stability index stood at 2.52.

For YQSKRYNDDYYEESYFTTRTYGEP, the protein stability index was found to be 1.97.

Regarding YQSKQYNDDYYEESYFTTRTYGEP, the protein stability index was found to be 2.48.

As to YQSKVYNDDYYEESYFTTRTYGEP, the protein stability index was 2.06.

Consider YQSKIYNDDYYEESYFTTRTYGEP, for which the protein stability index came out at 2.18.

Turning to YQSKDYNDDYYEESYFTTRTYGEP, the protein stability index was 3.08.

Consider YQSKKYNDDYYEESYFTTRTYGEP, for which the protein stability index was found to be 2.22.

Take YQSKWYNDDYYEESYFTTRTYGEP: the protein stability index amounted to 2.92.

Consider YQSKFYNDDYYEESYFTTRTYGEP, for which the protein stability index worked out at 2.33.

As to YQSKLYNDDYYEESYFTTRTYGEP, the protein stability index worked out at 1.82.

Regarding YQSKGYNDDYYDESYFTTRTYGEP, the protein stability index amounted to 2.57.

YQSKGYNDDYYAESYFTTRTYGEP: the protein stability index worked out at 2.19.

In the case of YQSKGYNDDYYFESYFTTRTYGEP, the protein stability index was determined as 2.11.

For the variant YQSKGYNDDYYGESYFTTRTYGEP, the protein stability index was 1.84.

Consider YQSKGYNDDYYCESYFTTRTYGEP, for which the protein stability index was 1.75.

In the case of YQSKGYNDDNYEESYFTTRTYGEP, the protein stability index was 2.64.

As to YQSKGYNDDLYEESYFTTRTYGEP, the protein stability index amounted to 2.18.

On to YQSKGYNDDVYEESYFTTRTYGEP, for which the protein stability index is 2.82.

Regarding YQSKGYNDDPYEESYFTTRTYGEP, the protein stability index came out at 2.53.

As to YQSKGYNDDWYEESYFTTRTYGEP, the protein stability index was determined as 2.38.

Take YQSKGYNDDFYEESYFTTRTYGEP: the protein stability index is 2.11.

As to YQSKGYNDDEYEESYFTTRTYGEP, the protein stability index came out at 3.04.

For the variant YQSKGYNDDTYEESYFTTRTYGEP, the protein stability index came to 2.5.

Take YQSKGYNDDKYEESYFTTRTYGEP: the protein stability index worked out at 2.44.

YQSKGYNDDHYEESYFTTRTYGEP: the protein stability index turned out to be 2.45.

Turning to YQSKGYNDDIYEESYFTTRTYGEP, the protein stability index turned out to be 2.52.

As to YQSKGYNDDCYEESYFTTRTYGEP, the protein stability index turned out to be 2.47.

Regarding YQSKGYNDDGYEESYFTTRTYGEP, the protein stability index was found to be 2.49.

Take YQSKGYNDDSYEESYFTTRTYGEP: the protein stability index is 2.65.

Turning to YQSKGYNDDMYEESYFTTRTYGEP, the protein stability index was 2.12.

Turning to YQSKGYNDDQYEESYFTTRTYGEP, the protein stability index came out at 2.67.

For YQSKGYNDDDYEESYFTTRTYGEP, the protein stability index was 2.85.

Take YQSKGYNDDRYEESYFTTRTYGEP: the protein stability index was 2.82.

Turning to YQSKGYNDDAYEESYFTTRTYGEP, the protein stability index stood at 2.2.

YQSKGYNDDYKEESYFTTRTYGEP: the protein stability index worked out at 2.19.

Consider YQSKGYNDDYHEESYFTTRTYGEP, for which the protein stability index worked out at 2.6.

Take YQSKGYNDDYCEESYFTTRTYGEP: the protein stability index came out at 2.36.

Regarding YQSKGYNDDYQEESYFTTRTYGEP, the protein stability index is 2.8.

For the variant YQSKGYNDDYLEESYFTTRTYGEP, the protein stability index came to 2.38.

For the variant YQSKGYNDDYREESYFTTRTYGEP, the protein stability index is 2.66.

As to YQSKGYNDDYSEESYFTTRTYGEP, the protein stability index stood at 2.8.

Turning to YQSKGYNDDYAEESYFTTRTYGEP, the protein stability index turned out to be 2.97.

In the case of YQSKGYNDDYNEESYFTTRTYGEP, the protein stability index was 2.98.

As to YQSKGYNDDYIEESYFTTRTYGEP, the protein stability index came out at 2.19.

For YQSKGYNDDYVEESYFTTRTYGEP, the protein stability index was determined as 2.34.

With YQSKGYNDDYGEESYFTTRTYGEP, the protein stability index is 2.84.

On to YQSKGYNDDYPEESYFTTRTYGEP, for which the protein stability index was 2.19.

As to YQSKGYNDDYDEESYFTTRTYGEP, the protein stability index was found to be 3.29.

On to YQSKGYNDDYMEESYFTTRTYGEP, for which the protein stability index was 2.51.

With YQSKGYNDDYEEESYFTTRTYGEP, the protein stability index came to 3.16.

Consider YQSKGYNDDYWEESYFTTRTYGEP, for which the protein stability index amounted to 1.87.

For YQSKGYNDDYFEESYFTTRTYGEP, the protein stability index amounted to 1.68.

Turning to YQSKGYNDDYTEESYFTTRTYGEP, the protein stability index was found to be 2.94.

As for YQTKGYNDDYYEESYFTTRTYGEP, the protein stability index is 2.54.

The record behind these values is the supplement of paper PMC10567573.
